Target: elastase enzyme
Experiment: cell-based or functional assay

- percentage of elastase inhibition with regard to the positive control (PMSF = 100%), absorbance at 405 nm: ~39 % of positive control
Binder: Ac-ALHKVK-NH2 [Ac-Ala-Leu-His-Lys-Val-Lys-NH2]

From patent publication US20220062145A1 (LIPOTRUE S L, published 2022)
